The numbers were not newly measured in publication PMC4980809, which cites them from elsewhere.

The target of the series is titin ZR7 (Homo sapiens) (UniProt Q8WZ42).

pKd: −log10 of the molar value.

Chain of titin ZR7 (Homo sapiens) (Q8WZ42 692-740): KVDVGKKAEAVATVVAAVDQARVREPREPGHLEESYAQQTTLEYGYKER
Chain of alpha-actinin-2 EF3/4 domain (P35609 823-894): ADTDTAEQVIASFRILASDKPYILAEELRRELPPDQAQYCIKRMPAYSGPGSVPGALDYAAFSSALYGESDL

“alpha-actinin-2 EF3/4 domain (from UniProt P35609)”: the pKd is 6.42.
